From US20040086528A1 (PROGENICS PHARMACEUTICALS, published 2004)

Legend:
Experiment in all cases: cell-based or functional assay
[1] = biological target: T1, CCR5 D11A, HA-tagged (human, UniProt P51681 1-352)
T1 sequence (looked up): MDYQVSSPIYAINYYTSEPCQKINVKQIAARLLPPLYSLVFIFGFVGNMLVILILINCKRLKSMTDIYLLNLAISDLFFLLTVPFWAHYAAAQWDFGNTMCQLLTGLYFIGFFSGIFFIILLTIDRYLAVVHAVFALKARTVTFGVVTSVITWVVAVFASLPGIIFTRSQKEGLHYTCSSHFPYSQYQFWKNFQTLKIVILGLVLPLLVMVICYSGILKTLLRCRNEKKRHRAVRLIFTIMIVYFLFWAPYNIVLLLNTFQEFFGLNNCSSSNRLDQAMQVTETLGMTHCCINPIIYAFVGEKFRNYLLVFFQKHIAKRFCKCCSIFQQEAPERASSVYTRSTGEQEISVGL

[2] = biological target: T2, CCR5 N13A, HA-tagged (human, UniProt P51681 1-352)
T2 sequence: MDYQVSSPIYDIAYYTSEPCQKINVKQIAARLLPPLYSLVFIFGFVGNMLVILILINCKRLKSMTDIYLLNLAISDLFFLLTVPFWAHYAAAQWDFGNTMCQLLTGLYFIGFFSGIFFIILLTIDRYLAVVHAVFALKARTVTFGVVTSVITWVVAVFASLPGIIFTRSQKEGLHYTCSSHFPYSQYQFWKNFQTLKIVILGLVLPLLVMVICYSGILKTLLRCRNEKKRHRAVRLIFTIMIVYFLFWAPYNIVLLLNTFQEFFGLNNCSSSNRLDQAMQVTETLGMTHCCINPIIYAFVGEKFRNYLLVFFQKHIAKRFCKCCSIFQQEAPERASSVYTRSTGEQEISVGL

[3] = biological target: T3, CCR5 E18A, HA-tagged (human, UniProt P51681 1-352)
T3 sequence (looked up): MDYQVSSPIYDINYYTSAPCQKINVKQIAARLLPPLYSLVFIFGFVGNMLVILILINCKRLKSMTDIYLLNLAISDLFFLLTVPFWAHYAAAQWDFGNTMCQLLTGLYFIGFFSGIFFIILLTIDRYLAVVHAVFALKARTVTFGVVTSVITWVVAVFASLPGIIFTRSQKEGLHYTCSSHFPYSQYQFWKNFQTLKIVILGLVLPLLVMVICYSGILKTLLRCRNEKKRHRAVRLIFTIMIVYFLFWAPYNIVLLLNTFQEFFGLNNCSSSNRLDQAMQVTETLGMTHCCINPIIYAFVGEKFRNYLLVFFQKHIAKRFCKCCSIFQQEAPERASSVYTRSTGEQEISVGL

[4] = biological target: T4, CCR5 K22A, HA-tagged (human, UniProt P51681 1-352)
T4 sequence: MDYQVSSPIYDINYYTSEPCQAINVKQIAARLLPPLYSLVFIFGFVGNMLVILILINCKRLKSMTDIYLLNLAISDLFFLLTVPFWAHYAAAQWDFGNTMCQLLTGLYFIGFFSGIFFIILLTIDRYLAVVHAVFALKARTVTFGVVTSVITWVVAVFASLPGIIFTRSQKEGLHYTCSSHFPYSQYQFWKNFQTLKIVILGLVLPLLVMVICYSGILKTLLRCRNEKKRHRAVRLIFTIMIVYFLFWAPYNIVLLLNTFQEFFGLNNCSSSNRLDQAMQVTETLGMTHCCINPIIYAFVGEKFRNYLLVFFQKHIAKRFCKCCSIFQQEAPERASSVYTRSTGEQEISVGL

[5] = biological target: T5, CCR5 R31A, HA-tagged (human, UniProt P51681 1-352)
T5 sequence: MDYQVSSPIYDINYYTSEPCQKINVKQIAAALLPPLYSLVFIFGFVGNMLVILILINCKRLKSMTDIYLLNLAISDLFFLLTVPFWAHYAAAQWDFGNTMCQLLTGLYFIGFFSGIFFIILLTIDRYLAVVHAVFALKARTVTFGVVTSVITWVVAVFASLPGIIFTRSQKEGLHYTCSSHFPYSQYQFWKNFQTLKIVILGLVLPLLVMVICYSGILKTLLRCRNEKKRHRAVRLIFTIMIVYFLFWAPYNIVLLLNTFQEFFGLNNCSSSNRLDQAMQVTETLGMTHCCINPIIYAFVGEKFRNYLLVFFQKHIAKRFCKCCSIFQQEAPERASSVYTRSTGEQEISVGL

[6] = biological target: T6, CCR5 Q102A, HA-tagged (human, UniProt P51681 1-352)
T6 sequence: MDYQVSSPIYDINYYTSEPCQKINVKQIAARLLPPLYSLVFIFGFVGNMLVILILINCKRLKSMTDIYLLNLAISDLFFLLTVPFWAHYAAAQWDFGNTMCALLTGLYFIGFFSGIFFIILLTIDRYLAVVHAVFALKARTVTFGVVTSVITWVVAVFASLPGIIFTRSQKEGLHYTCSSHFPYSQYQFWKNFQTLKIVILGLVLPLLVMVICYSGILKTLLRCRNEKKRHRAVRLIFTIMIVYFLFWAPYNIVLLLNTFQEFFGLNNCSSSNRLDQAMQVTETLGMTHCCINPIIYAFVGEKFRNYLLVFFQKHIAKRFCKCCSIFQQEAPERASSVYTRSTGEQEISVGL

[7] = biological target: T7, CCR5 E262A, HA-tagged (human, UniProt P51681 1-352)
T7 sequence: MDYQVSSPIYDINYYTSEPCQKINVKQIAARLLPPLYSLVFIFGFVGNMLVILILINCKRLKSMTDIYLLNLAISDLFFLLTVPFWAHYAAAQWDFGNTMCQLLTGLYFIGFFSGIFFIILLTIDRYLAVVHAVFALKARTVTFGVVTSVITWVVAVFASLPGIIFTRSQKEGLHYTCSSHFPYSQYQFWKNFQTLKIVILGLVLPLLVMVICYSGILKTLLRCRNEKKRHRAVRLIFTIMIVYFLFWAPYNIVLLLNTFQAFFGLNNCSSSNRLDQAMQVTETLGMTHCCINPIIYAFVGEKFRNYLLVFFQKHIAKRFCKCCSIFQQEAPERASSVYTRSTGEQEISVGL

Binder | relative % inhibition of NLluc/JR-FL entry into U87MG-CD4 cells by 2 µg/ml chemokine (wild-type = 100) [1] | relative % inhibition of NLluc/JR-FL entry into U87MG-CD4 cells by 2 µg/ml chemokine (wild-type = 100) [2] | relative % inhibition of NLluc/JR-FL entry into U87MG-CD4 cells by 2 µg/ml chemokine (wild-type = 100) [3] | relative % inhibition of NLluc/JR-FL entry into U87MG-CD4 cells by 2 µg/ml chemokine (wild-type = 100) [4] | relative % inhibition of NLluc/JR-FL entry into U87MG-CD4 cells by 2 µg/ml chemokine (wild-type = 100) [5] | relative % inhibition of NLluc/JR-FL entry into U87MG-CD4 cells by 2 µg/ml chemokine (wild-type = 100) [6] | relative % inhibition of NLluc/JR-FL entry into U87MG-CD4 cells by 2 µg/ml chemokine (wild-type = 100) [7]
RANTES, recombinant human (ligand) SPYSSDTTPCCFAYIARPLPRAHIKEYFYTSGKCSNPAVVFVTRKNRQVCANPEKKWVREYINSLEMS | 7% | 92% | 62% | -11% | -16% | 93% | 100%
macrophage inflammatory protein (MIP)-1β, recombinant human (ligand, UniProt P13236 24-92, looked up) APMGSDPPTACCFSYTARKLPRNFVVDYYETSSLCSQPAVVFQTKRSKQVCADPSESWVQEYVYDLELN | 41% | 93% | 100% | 12% | 2% | 98% | 102%
